Biological target: T1, GFP-NBR1 (human, UniProt Q14596-1 1-966)
T1 construct: NBR1, human, ORF amplified from a HeLa cDNA library; The TEV site lies between StrepII and GFP, so the cleaved protein keeps GFP; also called 6xHis‐Strep‐TEV‐GFP‐NBR1; Strep‐TEV‐GFP‐NBR1; source: Sf9 insect cells (Bac-to-Bac), purified (HisTrap, TEV cleavage, Superose6); not shown: His6, N-terminal, cleaved; StrepII, N-terminal, cleaved; GFP (meGFP, A206K), N-terminal, kept
T1 sequence (looked up): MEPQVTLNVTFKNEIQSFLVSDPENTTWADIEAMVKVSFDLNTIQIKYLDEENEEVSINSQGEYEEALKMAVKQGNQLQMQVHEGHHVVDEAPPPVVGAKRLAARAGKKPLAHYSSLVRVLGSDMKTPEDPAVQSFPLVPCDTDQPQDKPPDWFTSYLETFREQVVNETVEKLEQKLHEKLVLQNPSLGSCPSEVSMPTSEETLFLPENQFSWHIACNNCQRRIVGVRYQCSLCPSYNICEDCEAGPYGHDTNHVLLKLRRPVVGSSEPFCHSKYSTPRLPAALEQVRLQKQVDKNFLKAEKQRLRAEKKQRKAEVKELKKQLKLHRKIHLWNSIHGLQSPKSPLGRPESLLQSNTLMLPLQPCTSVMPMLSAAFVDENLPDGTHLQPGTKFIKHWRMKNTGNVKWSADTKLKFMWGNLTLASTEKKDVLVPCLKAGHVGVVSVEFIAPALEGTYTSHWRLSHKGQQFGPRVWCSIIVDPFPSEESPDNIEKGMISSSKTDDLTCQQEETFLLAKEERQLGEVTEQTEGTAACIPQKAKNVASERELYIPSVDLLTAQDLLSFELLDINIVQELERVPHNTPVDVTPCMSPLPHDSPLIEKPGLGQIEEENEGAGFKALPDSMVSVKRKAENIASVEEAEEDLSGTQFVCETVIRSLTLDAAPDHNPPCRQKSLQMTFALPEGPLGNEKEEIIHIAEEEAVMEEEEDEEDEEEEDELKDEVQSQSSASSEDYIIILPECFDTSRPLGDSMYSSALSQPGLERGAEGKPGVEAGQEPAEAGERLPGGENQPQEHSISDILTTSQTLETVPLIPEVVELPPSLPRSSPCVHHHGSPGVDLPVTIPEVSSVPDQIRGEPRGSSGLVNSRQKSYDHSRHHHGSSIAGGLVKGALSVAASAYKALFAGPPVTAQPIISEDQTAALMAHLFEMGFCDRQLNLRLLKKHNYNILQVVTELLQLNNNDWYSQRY
Test: microscopy-based protein-protein interaction assay on beads; GFP-NBR1 on GFP-TRAP beads; 2 μM mCherry-p62 variants at equilibrium in 25 mM HEPES pH 7.5, 150 mM NaCl, 1 mM DTT; spinning disk imaging
Settings: both partners purified

B1: mCherry-p62 PB1 (1–102) (domain or fragment, UniProt Q13501 1-102, looked up)
chain: MASLTVKAYLLGKEDAAREIRRFSFCCSPEPEAEAEAAAGPGPCERLLSRVAALFPALRPGGFQAHYRDEDGDLVAFSSDEELTMAMSYVKDDIFRIYIKEK
notes: p62/SQSTM1, PB1 domain, residues 1-102; also called isolated PB1 domain of p62; source: recombinant, purified; site-directed mutagenesis on the plasmid for the full-length protein (pET-mCherry-p62 PB1); not shown: mCherry, N-terminal, kept
binding result: binds

Source: article PMC5830917 (The EMBO Journal, 2018)
